Experimental data reported in publication PMC10866687 (2024).

B1: cortactin-GFP (wild type), in 293T cells [not stated] / FLAG-MAP1B-LC1 (wild type) [not stated (human or rat cDNA cloned)] (parent complex)
chain 1: not shown
chain 2: DRSPSPRHPDVSMVDPEALAIEQNLGKALKKDLKEKTKTKKPGTKTKSSSPVKKSDGKSKPLAASPKPAGLKESSDKVSRVASPKKKESVEKAAKPTTTPEVKAARGEEKDKETKNAANASASKSAKTATAGPGTTKTTKSSAVPPGLPVYLDLCYIPNHSNSKNVDVEFFKRVRSSYYVVSGNDPAAEEPSRAVLDALLEGKAQWGSNMQVTLIPTHDSEVMREWYQETHEKQQDLNIMVLASSSTVVMQDESFPACKIEL

Variants of: B1
Experiment: coimmunoprecipitation (IP FLAG, immunoblot quantification); n = 4 experiments; parent: 100; read off a plot

Going from chain 2 P6A, chain 2 R7A to chain 2 P66A, chain 2 K67A, chain 2 P68A, the percent of parent rises from ~78 % of WT to ~93 % of WT.

Compared with chain 2 K60A, chain 2 P61A, chain 2 K41A, chain 2 P42A is lower in percent of parent: ~120 % of WT for the first, ~76 % of WT for the second.

Going from chain 2 K95A, chain 2 P96A to chain 2 P145A, chain 2 P146A, the percent of parent falls from ~110 % of WT to ~36 % of WT.
